Reference: patent US20260242735A1 (UNIVERSIT T BASEL, published 2026)

How the values were obtained:
[1] = target: human CD33 P48Y (human, UniProt P20138 18-364); experiment: flow cytometry, transfected cells
[2] = target: human CD33 P48G (human, UniProt P20138 18-364); experiment: flow cytometry, transfected cells
[3] = target: human CD33 P48D (human, UniProt P20138 18-364); experiment: flow cytometry, transfected cells
[4] = target: human CD33 Y50I (human, UniProt P20138 18-364); experiment: flow cytometry, transfected cells
[5] = target: human CD33 Y50G (human, UniProt P20138 18-364); experiment: flow cytometry, transfected cells
[6] = target: human CD33 P48Q (human, UniProt P20138 18-364); experiment: flow cytometry, transfected cells
[7] = target: human CD33 K52D (human, UniProt P20138 18-364); experiment: flow cytometry, transfected cells
[8] = target: human CD33 Y49P (human, UniProt P20138 18-364); experiment: flow cytometry, transfected cells
[9] = target: human CD33 Y50L (human, UniProt P20138 18-364); experiment: flow cytometry, transfected cells
[10] = target: human CD33 P48W (human, UniProt P20138 18-364); experiment: flow cytometry, transfected cells
[11] = target: human CD33 Y50Q (human, UniProt P20138 18-364); experiment: flow cytometry, transfected cells
[12] = target: human CD33 Y50S (human, UniProt P20138 18-364); experiment: flow cytometry, transfected cells
[13] = target: human CD33 P48F (human, UniProt P20138 18-364); experiment: flow cytometry, transfected cells
[14] = target: human CD33 E336A (human, UniProt P20138 18-364); experiment: flow cytometry, HEK293-T, alanine scan;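 also: transiently transfected HEK293-T cells expressing single alanine mutants of human CD33 (alanine residues changed to serine), antibody binding fluorescence minus background, relative to wild type CD33, mean of duplicates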
[15] = target: human CD33 G318A (human, UniProt P20138 18-364); experiment: flow cytometry, HEK293-T, alanine scan;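 also: transiently transfected HEK293-T cells expressing single alanine mutants of human CD33 (alanine residues changed to serine), antibody binding fluorescence minus background, relative to wild type CD33, mean of duplicates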
[16] = target: human CD33 V282A (human, UniProt P20138 18-364); experiment: flow cytometry, HEK293-T, alanine scan;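 also: transiently transfected HEK293-T cells expressing single alanine mutants of human CD33 (alanine residues changed to serine), antibody binding fluorescence minus background, relative to wild type CD33, mean of duplicates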
[17] = target: human CD33 S323A (human, UniProt P20138 18-364); experiment: flow cytometry, HEK293-T, alanine scan;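 also: transiently transfected HEK293-T cells expressing single alanine mutants of human CD33 (alanine residues changed to serine), antibody binding fluorescence minus background, relative to wild type CD33, mean of duplicates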
[18] = target: human CD33 V294A (human, UniProt P20138 18-364); experiment: flow cytometry, HEK293-T, alanine scan
[19] = target: human CD33 A329S (human, UniProt P20138 18-364); experiment: flow cytometry, HEK293-T, alanine scan
[20] = target: human CD33 P308A (human, UniProt P20138 18-364); experiment: flow cytometry, HEK293-T, alanine scan
[21] = target: human CD33 L338A (human, UniProt P20138 18-364); experiment: flow cytometry, HEK293-T, alanine scan
[22] = target: human CD33 C325A (human, UniProt P20138 18-364); experiment: flow cytometry, HEK293-T, alanine scan
[23] = target: human CD33 I47P (human, UniProt P20138 18-364); experiment: flow cytometry, transfected cells
human CD33 I47P, sequence (P20138 18-364 I47P limits assumed): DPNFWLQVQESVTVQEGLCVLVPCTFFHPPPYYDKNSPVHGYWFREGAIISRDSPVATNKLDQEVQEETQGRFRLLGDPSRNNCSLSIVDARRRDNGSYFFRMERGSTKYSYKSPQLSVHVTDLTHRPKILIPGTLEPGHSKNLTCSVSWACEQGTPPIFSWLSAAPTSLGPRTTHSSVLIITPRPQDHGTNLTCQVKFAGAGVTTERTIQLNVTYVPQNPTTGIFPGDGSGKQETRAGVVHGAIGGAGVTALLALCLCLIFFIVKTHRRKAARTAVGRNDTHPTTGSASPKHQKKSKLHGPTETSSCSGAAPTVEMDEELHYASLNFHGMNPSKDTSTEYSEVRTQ

human CD33 Y50I, sequence (P20138 18-364 Y50I limits assumed): as the sequence (P20138 18-364 I47P limits assumed) above, with P30I, Y33I counted along it
human CD33 Y50G, sequence (P20138 18-364 Y50G limits assumed): as the sequence (P20138 18-364 I47P limits assumed) above, with P30I, Y33G counted along it
human CD33 C325A, sequence (P20138 18-364 C325A limits assumed): as the sequence (P20138 18-364 I47P limits assumed) above, with P30I, C308A counted along it
human CD33 P48W, sequence (P20138 18-364 P48W limits assumed): as the sequence (P20138 18-364 I47P limits assumed) above, with P30I, P31W counted along it
human CD33 P48Q, sequence (P20138 18-364 P48Q limits assumed): as the sequence (P20138 18-364 I47P limits assumed) above, with P30I, P31Q counted along it
human CD33 P48G, sequence (P20138 18-364 P48G limits assumed): as the sequence (P20138 18-364 I47P limits assumed) above, with P30I, P31G counted along it
human CD33 L338A, sequence (P20138 18-364 L338A limits assumed): as the sequence (P20138 18-364 I47P limits assumed) above, with P30I, L321A counted along it
human CD33 V282A, sequence (P20138 18-364 V282A limits assumed): as the sequence (P20138 18-364 I47P limits assumed) above, with P30I, V265A counted along it
human CD33 S323A, sequence (P20138 18-364 S323A limits assumed): as the sequence (P20138 18-364 I47P limits assumed) above, with P30I, S306A counted along it
human CD33 E336A, sequence (P20138 18-364 E336A limits assumed): as the sequence (P20138 18-364 I47P limits assumed) above, with P30I, E319A counted along it
human CD33 A329S, sequence (P20138 18-364 A329S limits assumed): as the sequence (P20138 18-364 I47P limits assumed) above, with P30I, A312S counted along it
human CD33 G318A, sequence (P20138 18-364 G318A limits assumed): as the sequence (P20138 18-364 I47P limits assumed) above, with P30I, G301A counted along it
human CD33 V294A, sequence (P20138 18-364 V294A limits assumed): as the sequence (P20138 18-364 I47P limits assumed) above, with P30I, V277A counted along it
human CD33 P48D, sequence (P20138 18-364 P48D limits assumed): as the sequence (P20138 18-364 I47P limits assumed) above, with P30I, P31D counted along it
human CD33 P48Y, sequence (P20138 18-364 P48Y limits assumed): as the sequence (P20138 18-364 I47P limits assumed) above, with P30I, P31Y counted along it
human CD33 P308A, sequence (P20138 18-364 P308A limits assumed): as the sequence (P20138 18-364 I47P limits assumed) above, with P30I, P291A counted along it
human CD33 Y50L, sequence (P20138 18-364 Y50L limits assumed): as the sequence (P20138 18-364 I47P limits assumed) above, with P30I, Y33L counted along it
human CD33 Y50Q, sequence (P20138 18-364 Y50Q limits assumed): as the sequence (P20138 18-364 I47P limits assumed) above, with P30I, Y33Q counted along it
human CD33 Y49P, sequence (P20138 18-364 Y49P limits assumed): as the sequence (P20138 18-364 I47P limits assumed) above, with P30I, Y32P counted along it
human CD33 K52D, sequence (P20138 18-364 K52D limits assumed): as the sequence (P20138 18-364 I47P limits assumed) above, with P30I, K35D counted along it
human CD33 Y50S, sequence (P20138 18-364 Y50S limits assumed): as the sequence (P20138 18-364 I47P limits assumed) above, with P30I, Y33S counted along it
human CD33 P48F, sequence (P20138 18-364 P48F limits assumed): as the sequence (P20138 18-364 I47P limits assumed) above, with P30I, P31F counted along it

B1: Refmab #4 (antibody, human IgG1, V domains shown)
VH: QVQLVQSGAEVKKPGESVKVSCKASGYTFTNYGMNWVKQAPGQGLEWMGWINTYTGEPTYADKFQGRVTMTTDTSTSTAYMEIRNLGGDDTAVYYCARWSWSDGYYVYFDYWGQGTSVTVSS
VL: DIVMTQSPDSLTVSLGERTTINCKSSQSVLDSSTNKNSLAWYQQKPGQPPKLLLSWASTRESGIPDRFSGSGSGTDFTLTIDSPQPEDSATYYCQQSAHFPITFGQGTRLEIK
**Q.** Does B1 bind [1]?
**A.** no binding (tested: below 20%)

**Q.** Does B1 bind [2]?
**A.** no binding (tested: below 20%)

**Q.** Does B1 bind [3]?
**A.** no binding (tested: below 20%)

**Q.** Does B1 bind [4]?
**A.** no binding (tested: below 20%)

**Q.** Does B1 bind [5]?
**A.** no binding (tested: below 20%)

**Q.** Does B1 bind [6]?
**A.** no binding (tested: below 20%)

**Q.** Does B1 bind [7]?
**A.** no binding (tested: below 20%)

**Q.** Does B1 bind [8]?
**A.** no binding (tested: below 20%)

**Q.** Does B1 bind [9]?
**A.** no binding (tested: below 20%)

**Q.** Does B1 bind [10]?
**A.** no binding (tested: below 20%)

**Q.** Does B1 bind [11]?
**A.** no binding (tested: below 20%)

**Q.** Does B1 bind [12]?
**A.** no binding (tested: below 20%)

**Q.** Does B1 bind [13]?
**A.** no binding (tested: below 20%)

B2: Refmab #5 (antibody, V domains shown)
VH: QVQLVQSGAEVKKPGASVKVSCKASGYTFTNYDINWVRQAPGQGLEWIGWIYPGDGSTKYNEKFKAKATLTADTSTSTAYMELRSLRSDDTAVYYCASGYEDAMDYWGQGTTVTVSS
VL: DIQMTQSPSSLSASVGDRVTINCKASQDINSYLSWFQQKPGKAPKTLIYRANRLVDGVPSRFSGSGSGQDYTLTISSLQPEDFATYYCLQYDEFPLTFGGGTKVEIK
notes: The alanine scan used IgG or Fab
**Q.** With B2 as the binder, how does the “Mean % WT Binding” value [14] read?
**A.** 90.5 % WT binding

**Q.** What about the “Mean % WT Binding” value [15] of the same binder?
**A.** 87.1 % WT binding

**Q.** What about the “Mean % WT Binding” value [16] of the same binder?
**A.** 112 % WT binding

**Q.** What about the “Mean % WT Binding” value [17] of the same binder?
**A.** 113 % WT binding

**Q.** And the “Mean % WT Binding” value [18]?
**A.** 84.6 % WT binding

**Q.** And the “Mean % WT Binding” value [19]?
**A.** 124 % WT binding

**Q.** What about the “Mean % WT Binding” value [20] of the same binder?
**A.** 73.5 % WT binding

**Q.** What about the “Mean % WT Binding” value [21] of the same binder?
**A.** 105 % WT binding

**Q.** What about the “Mean % WT Binding” value [22] of the same binder?
**A.** 107 % WT binding

B3: Refmab #5 (antibody, human IgG1, V domains shown)
VH: QVQLVQSGAEVKKPGASVKVSCKASGYTFTNYDINWVRQAPGQGLEWIGWIYPGDGSTKYNEKFKAKATLTADTSTSTAYMELRSLRSDDTAVYYCASGYEDAMDYWGQGTTVTVSS
VL: DIQMTQSPSSLSASVGDRVTINCKASQDINSYLSWFQQKPGKAPKTLIYRANRLVDGVPSRFSGSGSGQDYTLTISSLQPEDFATYYCLQYDEFPLTFGGGTKVEIK
**Q.** Does B3 bind [1]?
**A.** no binding (tested: below 20%)

**Q.** Does B3 bind [2]?
**A.** no binding (tested: below 20%)

**Q.** Does B3 bind [3]?
**A.** no binding (tested: below 20%)

**Q.** Does B3 bind [4]?
**A.** no binding (tested: below 20%)

**Q.** Does B3 bind [5]?
**A.** no binding (tested: below 20%)

**Q.** Does B3 bind [6]?
**A.** no binding (tested: below 20%)

**Q.** Does B3 bind [7]?
**A.** no binding (tested: below 20%)

**Q.** Does B3 bind [8]?
**A.** no binding (tested: below 20%)

**Q.** Does B3 bind [9]?
**A.** no binding (tested: below 20%)

**Q.** Does B3 bind [10]?
**A.** no binding (tested: below 20%)

**Q.** Does B3 bind [11]?
**A.** no binding (tested: below 20%)

**Q.** Does B3 bind [12]?
**A.** no binding (tested: below 20%)

**Q.** Does B3 bind [13]?
**A.** no binding (tested: below 20%)

**Q.** Does B3 bind [23]?
**A.** no binding (tested: below 20%)

B4: Refmab #6 (antibody, V domains shown)
VH: QVQLQQPGAEVVKPGASVKMSCKASGYTFTSYYIHWIKQTPGQGLEWVGVIYPGNDDISYNQKFQGKATLTADKSSTTAYMQLSSLTSEDSAVYYCAREVRLRYFDVWGQGTTVTVSS
VL: EIVLTQSPGSLAVSPGERVTMSCKSSQSVFFSSSQKNYLAWYQQIPGQSPRLLIYWASTRESGVPDRFTGSGSGTDFTLTISSVQPEDLAIYYCHQYLSSRTFGQGTKLEIK
notes: as for B2
**Q.** For B4, which “Mean % WT Binding” value [14] is on record?
**A.** 102 % WT binding

**Q.** What about the “Mean % WT Binding” value [15] of the same binder?
**A.** 89.1 % WT binding

**Q.** What about the “Mean % WT Binding” value [16] of the same binder?
**A.** 108 % WT binding

**Q.** What about the “Mean % WT Binding” value [17] of the same binder?
**A.** 106 % WT binding

**Q.** What about the “Mean % WT Binding” value [18] of the same binder?
**A.** 104 % WT binding

**Q.** And the “Mean % WT Binding” value [19]?
**A.** 92.8 % WT binding

**Q.** And the “Mean % WT Binding” value [20]?
**A.** 103 % WT binding

**Q.** And the “Mean % WT Binding” value [21]?
**A.** 103 % WT binding

**Q.** And the “Mean % WT Binding” value [22]?
**A.** 111 % WT binding
